From IntAct's records for PubMed 31515488

B1: E3 ubiquitin-protein ligase Midline-1 (Homo sapiens), O15344 (parent)
chain: METLESELTCPICLELFEDPLLLPCAHSLCFNCAHRILVSHCATNESVESITAFQCPTCRHVITLSQRGLDGLKRNVTLQNIIDRFQKASVSGPNSPSETRRERAFDANTMTSAEKVLCQFCDQDPAQDAVKTCVTCEVSYCDECLKATHPNKKPFTGHRLIEPIPDSHIRGLMCLEHEDEKVNMYCVTDDQLICALCKLVGRHRDHQVAALSERYDKLKQNLESNLTNLIKRNTELETLLAKLIQTCQHVEVNASRQEAKLTEECDLLIEIIQQRRQIIGTKIKEGKVMRLRKLAQQIANCKQCIERSASLISQAEHSLKENDHARFLQTAKNITERVSMATASSQVLIPEINLNDTFDTFALDFSREKKLLECLDYLTAPNPPTIREELCTASYDTITVHWTSDDEFSVVSYELQYTIFTGQANVVSLCNSADSWMIVPNIKQNHYTVHGLQSGTKYIFMVKAINQAGSRSSEPGKLKTNSQPFKLDPKSAHRKLKVSHDNLTVERDESSSKKSHTPERFTSQGSYGVAGNVFIDSGRHYWEVVISGSTWYAIGLAYKSAPKHEWIGKNSASWALCRCNNNWVVRHNSKEIPIEPAPHLRRVGILLDYDNGSIAFYDALNSIHLYTFDVAFAQPVCPTFTVWNKCLTIITGLPIPDHLDCTEQLP
B2: Src kinase-associated phosphoprotein 1 (Homo sapiens), Q86WV1 (parent)
chain: MQAAALPEEIRWLLEDAEEFLAEGLRNENLSAVARDHRDHILRGFQQIKARYYWDFQPQGGDIGQDSSDDNHSGTLGLSLTSDAPFLSDYQDEGMEDIVKGAQELDNVIKQGYLEKKSKDHSFFGSEWQKRWCVVSRGLFYYYANEKSKQPKGTFLIKGYGVRMAPHLRRDSKKESCFELTSQDRRSYEFTATSPAEARDWVDQISFLLKDLSSLTIPYEEDEEEEEKEETYDDIDGFDSPSCGSQCRPTILPGSVGIKEPTEEKEEEDIYEVLPDEEHDLEEDESGTRRKGVDYASYYQGLWDCHGDQPDELSFQRGDLIRILSKEYNMYGWWVGELNSLVGIVPKEYLTTAFEVEER
B3: Bleomycin hydrolase (Homo sapiens), Q13867 (parent)
chain: MSSSGLNSEKVAALIQKLNSDPQFVLAQNVGTTHDLLDICLKRATVQRAQHVFQHAVPQEGKPITNQKSSGRCWIFSCLNVMRLPFMKKLNIEEFEFSQSYLFFWDKVERCYFFLSAFVDTAQRKEPEDGRLVQFLLMNPANDGGQWDMLVNIVEKYGVIPKKCFPESYTTEATRRMNDILNHKMREFCIRLRNLVHSGATKGEISATQDVMMEEIFRVVCICLGNPPETFTWEYRDKDKNYQKIGPITPLEFYREHVKPLFNMEDKICLVNDPRPQHKYNKLYTVEYLSNMVGGRKTLYNNQPIDFLKKMVAASIKDGEAVWFGCDVGKHFNSKLGLSDMNLYDHELVFGVSLKNMNKAERLTFGESLMTHAMTFTAVSEKDDQDGAFTKWRVENSWGEDHGHKGYLCMTDEWFSEYVYEVVVDRKHVPEEVLAVLEQEPIILPAWDPMGALAE
B4: Keratin, type II cytoskeletal 2 epidermal (Homo sapiens), P35908 (parent)
chain: MSCQISCKSRGRGGGGGGFRGFSSGSAVVSGGSRRSTSSFSCLSRHGGGGGGFGGGGFGSRSLVGLGGTKSISISVAGGGGGFGAAGGFGGRGGGFGGGSSFGGGSGFSGGGFGGGGFGGGRFGGFGGPGGVGGLGGPGGFGPGGYPGGIHEVSVNQSLLQPLNVKVDPEIQNVKAQEREQIKTLNNKFASFIDKVRFLEQQNQVLQTKWELLQQMNVGTRPINLEPIFQGYIDSLKRYLDGLTAERTSQNSELNNMQDLVEDYKKKYEDEINKRTAAENDFVTLKKDVDNAYMIKVELQSKVDLLNQEIEFLKVLYDAEISQIHQSVTDTNVILSMDNSRNLDLDSIIAEVKAQYEEIAQRSKEEAEALYHSKYEELQVTVGRHGDSLKEIKIEISELNRVIQRLQGEIAHVKKQCKNVQDAIADAEQRGEHALKDARNKLNDLEEALQQAKEDLARLLRDYQELMNVKLALDVEIATYRKLLEGEECRMSGDLSSNVTVSVTSSTISSNVASKAAFGGSGGRGSSSGGGYSSGSSSYGSGGRQSGSRGGSGGGGSISGGGYGSGGGSGGRYGSGGGSKGGSISGGGYGSGGGKHSSGGGSRGGSSSGGGYGSGGGGSSSVKGSSGEAFGSSVTFSFR
partner: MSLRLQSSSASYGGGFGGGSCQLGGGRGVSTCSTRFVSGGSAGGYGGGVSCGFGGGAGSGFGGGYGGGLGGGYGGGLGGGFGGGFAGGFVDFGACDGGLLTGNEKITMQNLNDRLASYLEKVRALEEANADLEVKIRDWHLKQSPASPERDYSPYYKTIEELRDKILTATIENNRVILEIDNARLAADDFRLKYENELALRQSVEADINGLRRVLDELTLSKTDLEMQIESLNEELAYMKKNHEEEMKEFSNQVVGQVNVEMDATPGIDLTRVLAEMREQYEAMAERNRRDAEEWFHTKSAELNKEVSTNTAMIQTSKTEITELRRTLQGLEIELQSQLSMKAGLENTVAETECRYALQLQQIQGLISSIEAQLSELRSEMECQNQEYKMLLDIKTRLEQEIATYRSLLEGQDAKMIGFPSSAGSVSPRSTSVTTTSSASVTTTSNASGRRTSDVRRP
B5: Adenylate kinase 8 (Homo sapiens), Q96MA6 (parent)
chain: MDATIAPHRIPPEMPQYGEENHIFELMQNMLEQLLIHQPEDPIPFMIQHLHRDNDNVPRIVILGPPASGKTTIAMWLCKHLNSSLLTLENLILNEFSYTATEARRLYLQRKTVPSALLVQLIQERLAEEDCIKQGWILDGIPETREQALRIQTLGITPRHVIVLSAPDTVLIERNLGKRIDPQTGEIYHTTFDWPPESEIQNRLMVPEDISELETAQKLLEYHRNIVRVIPSYPKILKVISADQPCVDVFYQALTYVQSNHRTNAPFTPRVLLLGPVGSGKSLQAALLAQKYRLVNVCCGQLLKEAVADRTTFGELIQPFFEKEMAVPDSLLMKVLSQRLDQQDCIQKGWVLHGVPRDLDQAHLLNRLGYNPNRVFFLNVPFDSIMERLTLRRIDPVTGERYHLMYKPPPTMEIQARLLQNPKDAEEQVKLKMDLFYRNSADLEQLYGSAITLNGDQDPYTVFEYIESGIINPLPKKIP
B6: PiggyBac transposable element-derived protein 1 (Homo sapiens), Q96JS3 (parent)
chain: MYEALPGPAPENEDGLVKVKEEDPTWEQVCNSQEGSSHTQEICRLRFRHFCYQEAHGPQEALAQLRELCHQWLRPEMHTKEQIMELLVLEQFLTILPKELQPCVKTYPLESGEEAVTVLENLETGSGDTGQQASVYIQGQDMHPMVAEYQGVSLECQSLQLLPGITTLKCEPPQRPQGNPQEVSGPVPHGSAHLQEKNPRDKAVVPVFNPVRSQTLVKTEEETAQAVAAEKWSHLSLTRRNLCGNSAQETVMSLSPMTEEIVTKDRLFKAKQETSEEMEQSGEASGKPNRECAPQIPCSTPIATERTVAHLNTLKDRHPGDLWARMHISSLEYAAGDITRKGRKKDKARVSELLQGLSFSGDSDVEKDNEPEIQPAQKKLKVSCFPEKSWTKRDIKPNFPSWSALDSGLLNLKSEKLNPVELFELFFDDETFNLIVNETNNYASQKNVSLEVTVQEMRCVFGVLLLSGFMRHPRREMYWEVSDTDQNLVRDAIRRDRFELIFSNLHFADNGHLDQKDKFTKLRPLIKQMNKNFLLYAPLEEYYCFDKSMCECFDSDQFLNGKPIRIGYKIWCGTTTQGYLVWFEPYQEESTMKVDEDPDLGLGGNLVMNFADVLLERGQYPYHLCFDSFFTSVKLLSALKKKGVRATGTIRENRTEKCPLMNVEHMKKMKRGYFDFRIEENNEIILCRWYGDGIISLCSNAVGIEPVNEVSCCDADNEEIPQISQPSIVKVYDECKEGVAKMDQIISKYRVRIRSKKWYSILVSYMIDVAMNNAWQLHRACNPGASLDPLDFRRFVAHFYLEHNAHLSD

Variants of: B1
Settings: with meox1_human MEOX1, P50221
Sequence of meox1_human MEOX1, P50221 (P50221 whole entry): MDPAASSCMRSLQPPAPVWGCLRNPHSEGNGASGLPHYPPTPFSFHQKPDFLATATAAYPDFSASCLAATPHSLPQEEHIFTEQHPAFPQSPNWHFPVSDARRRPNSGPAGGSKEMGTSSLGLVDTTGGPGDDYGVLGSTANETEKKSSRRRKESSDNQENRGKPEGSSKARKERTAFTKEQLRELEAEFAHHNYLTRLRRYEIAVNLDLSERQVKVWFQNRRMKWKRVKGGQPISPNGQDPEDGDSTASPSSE

Variant | effect of a mutation on the interaction
D84N | with no effect

Variants of: B1
Settings: with echp_human EHHADH

Variant | effect of a mutation on the interaction
D84N | with no effect

Variants of: B1
Settings: with ub2d3_human UBE2D3, P61077
Sequence of ub2d3_human UBE2D3, P61077 (P61077 whole entry): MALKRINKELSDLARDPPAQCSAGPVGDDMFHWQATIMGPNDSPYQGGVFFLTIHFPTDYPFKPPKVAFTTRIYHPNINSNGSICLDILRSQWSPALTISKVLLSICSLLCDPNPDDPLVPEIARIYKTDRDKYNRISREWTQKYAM

Variant | effect of a mutation on the interaction
D84N | with no effect

Variants of: B1
Settings: with ub2e2_human UBE2E2, Q96LR5
Sequence of ub2e2_human UBE2E2, Q96LR5 (Q96LR5 whole entry): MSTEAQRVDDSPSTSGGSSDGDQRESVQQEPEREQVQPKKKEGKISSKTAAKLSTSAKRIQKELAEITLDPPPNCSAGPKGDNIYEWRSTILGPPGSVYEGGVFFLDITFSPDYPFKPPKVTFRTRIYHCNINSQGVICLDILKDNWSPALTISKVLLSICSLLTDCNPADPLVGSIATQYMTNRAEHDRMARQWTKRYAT

Variant | effect of a mutation on the interaction
D84N | with no effect

Variants of: B2
Settings: with eeig1_human EEIG1, Q5T9C2
Sequence of eeig1_human EEIG1, Q5T9C2 (Q5T9C2 whole entry): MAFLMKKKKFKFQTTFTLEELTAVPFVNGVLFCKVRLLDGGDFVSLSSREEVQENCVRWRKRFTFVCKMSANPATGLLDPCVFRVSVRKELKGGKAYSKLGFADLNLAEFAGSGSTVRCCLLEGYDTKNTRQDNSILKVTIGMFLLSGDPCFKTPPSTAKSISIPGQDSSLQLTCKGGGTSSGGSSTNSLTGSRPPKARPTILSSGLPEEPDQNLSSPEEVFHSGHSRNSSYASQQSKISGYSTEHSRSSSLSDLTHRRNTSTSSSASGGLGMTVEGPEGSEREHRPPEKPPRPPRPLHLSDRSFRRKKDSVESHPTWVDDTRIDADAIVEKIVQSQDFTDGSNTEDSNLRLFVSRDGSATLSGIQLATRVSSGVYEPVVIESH

Variant | effect of a mutation on the interaction
S242G | with no effect

Variants of: B3
Settings: with ntaq1_human NTAQ1, Q96HA8

Variant | effect of a mutation on the interaction
E381K | with no effect

Variants of: B3
Settings: with nud12_human NUDT12, Q9BQG2
Sequence of nud12_human NUDT12, Q9BQG2 (Q9BQG2 whole entry): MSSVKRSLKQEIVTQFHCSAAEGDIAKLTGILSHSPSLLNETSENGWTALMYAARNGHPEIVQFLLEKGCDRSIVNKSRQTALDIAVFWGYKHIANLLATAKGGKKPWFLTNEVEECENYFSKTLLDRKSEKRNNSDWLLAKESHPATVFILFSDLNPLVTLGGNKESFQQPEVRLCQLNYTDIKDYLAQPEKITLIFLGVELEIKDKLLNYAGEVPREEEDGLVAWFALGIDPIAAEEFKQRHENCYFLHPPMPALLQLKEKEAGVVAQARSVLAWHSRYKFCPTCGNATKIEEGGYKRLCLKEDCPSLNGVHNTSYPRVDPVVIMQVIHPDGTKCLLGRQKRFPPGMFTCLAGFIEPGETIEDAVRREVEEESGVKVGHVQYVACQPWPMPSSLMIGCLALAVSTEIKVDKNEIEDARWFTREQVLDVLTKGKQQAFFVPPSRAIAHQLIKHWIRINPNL

Variant | effect of a mutation on the interaction
I443V | with no effect

Variants of: B4
Settings: with KRT13, P13646

Variant | effect of a mutation on the interaction
A517G | with no effect

Variants of: B5
Settings: with mcm7_human MCM7, P33993
Sequence of mcm7_human MCM7, P33993 (P33993 whole entry): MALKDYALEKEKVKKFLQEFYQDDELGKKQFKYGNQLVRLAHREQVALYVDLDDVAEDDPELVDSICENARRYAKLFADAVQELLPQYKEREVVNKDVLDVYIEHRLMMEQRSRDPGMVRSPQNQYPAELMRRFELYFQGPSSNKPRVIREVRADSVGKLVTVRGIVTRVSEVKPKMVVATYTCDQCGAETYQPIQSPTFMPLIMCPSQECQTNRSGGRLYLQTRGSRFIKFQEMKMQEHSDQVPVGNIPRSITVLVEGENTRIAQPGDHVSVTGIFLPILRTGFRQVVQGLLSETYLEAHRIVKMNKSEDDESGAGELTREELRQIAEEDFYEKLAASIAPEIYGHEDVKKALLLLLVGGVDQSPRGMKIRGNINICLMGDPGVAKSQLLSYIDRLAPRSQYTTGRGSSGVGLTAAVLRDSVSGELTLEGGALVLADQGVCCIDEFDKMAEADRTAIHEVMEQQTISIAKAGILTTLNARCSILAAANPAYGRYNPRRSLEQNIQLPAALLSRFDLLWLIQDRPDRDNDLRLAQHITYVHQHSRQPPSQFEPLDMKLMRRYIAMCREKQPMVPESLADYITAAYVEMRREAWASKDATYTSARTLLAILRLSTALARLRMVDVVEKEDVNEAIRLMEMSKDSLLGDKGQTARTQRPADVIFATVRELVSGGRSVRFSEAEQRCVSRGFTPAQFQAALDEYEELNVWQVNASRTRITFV

Variant | effect of a mutation on the interaction
T169K | with no effect
R339C | disrupting interaction strength
V227I | with no effect

Variants of: B6
Settings: with traf2_human TRAF2, Q12933
Sequence of traf2_human TRAF2, Q12933 (Q12933 whole entry): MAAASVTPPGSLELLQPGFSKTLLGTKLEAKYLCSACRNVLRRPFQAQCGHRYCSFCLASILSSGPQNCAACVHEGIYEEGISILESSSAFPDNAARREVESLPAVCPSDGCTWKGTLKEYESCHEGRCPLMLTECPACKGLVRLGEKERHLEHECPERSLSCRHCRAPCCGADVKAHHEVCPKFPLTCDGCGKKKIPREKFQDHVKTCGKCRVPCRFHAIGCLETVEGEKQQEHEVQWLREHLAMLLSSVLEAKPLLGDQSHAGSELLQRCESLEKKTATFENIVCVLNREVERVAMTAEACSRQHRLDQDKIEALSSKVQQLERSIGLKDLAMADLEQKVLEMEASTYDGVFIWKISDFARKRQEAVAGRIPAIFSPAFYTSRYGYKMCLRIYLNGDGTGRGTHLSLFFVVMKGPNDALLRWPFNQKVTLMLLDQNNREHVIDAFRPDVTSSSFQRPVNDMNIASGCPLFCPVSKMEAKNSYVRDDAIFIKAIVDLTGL

Variant | effect of a mutation on the interaction
N398S | with no effect

Variants of: B6
Settings: with zsc22_human ZSCAN22, P10073
Sequence of zsc22_human ZSCAN22, P10073 (P10073 whole entry): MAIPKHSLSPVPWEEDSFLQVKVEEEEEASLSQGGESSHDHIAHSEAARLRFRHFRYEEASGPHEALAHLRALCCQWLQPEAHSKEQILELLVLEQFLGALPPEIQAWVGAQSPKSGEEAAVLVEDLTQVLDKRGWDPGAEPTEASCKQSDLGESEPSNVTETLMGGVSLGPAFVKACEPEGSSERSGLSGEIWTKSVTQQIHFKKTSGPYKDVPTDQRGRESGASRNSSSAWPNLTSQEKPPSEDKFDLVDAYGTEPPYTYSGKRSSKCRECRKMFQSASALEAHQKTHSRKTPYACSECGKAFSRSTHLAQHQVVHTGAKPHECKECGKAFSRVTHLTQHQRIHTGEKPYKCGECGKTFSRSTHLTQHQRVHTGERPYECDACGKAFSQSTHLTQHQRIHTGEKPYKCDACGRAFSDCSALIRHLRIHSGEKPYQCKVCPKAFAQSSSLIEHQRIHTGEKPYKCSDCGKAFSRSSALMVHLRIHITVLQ

Variant | effect of a mutation on the interaction
N398S | with no effect

Variants of: B6
Settings: with zn446_human ZNF446, Q9NWS9
Sequence of zn446_human ZNF446, Q9NWS9 (Q9NWS9 whole entry): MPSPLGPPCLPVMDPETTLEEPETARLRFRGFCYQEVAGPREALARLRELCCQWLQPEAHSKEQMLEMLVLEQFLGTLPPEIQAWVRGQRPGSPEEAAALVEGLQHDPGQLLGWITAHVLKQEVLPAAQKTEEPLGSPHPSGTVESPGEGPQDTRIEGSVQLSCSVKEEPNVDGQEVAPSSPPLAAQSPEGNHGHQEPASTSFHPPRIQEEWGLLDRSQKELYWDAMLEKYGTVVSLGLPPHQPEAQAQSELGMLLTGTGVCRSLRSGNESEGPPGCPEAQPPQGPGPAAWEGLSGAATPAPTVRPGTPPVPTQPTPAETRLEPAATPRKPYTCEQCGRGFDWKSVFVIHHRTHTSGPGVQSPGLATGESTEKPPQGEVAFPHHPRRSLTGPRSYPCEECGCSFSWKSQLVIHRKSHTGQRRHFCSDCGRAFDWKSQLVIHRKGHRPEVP

Variant | effect of a mutation on the interaction
N398S | with no effect
